Measured values from paper PMC10715145.
Positions count from the first letter of the chain named.

What was measured:
[1] = target: T1, PacCZF-MBP (Alternaria alternata (tangerine …, UniProt A0A177DU84 1-150)); test: EMSA; […]; 28°C for 20 min; […]; buffer, […]; settings: protein: recombinant; tags: MBP (pMAL-c5x); label: 3'-biotin; blunt
[2] = target: T1, PacCZF-MBP; test: competition; excess unlabeled mutant vs labeled WT ACTT6 probe; […]; 28°C for 20 min; […]; buffer, […]; settings: protein: recombinant; tags: MBP (pMAL-c5x); label: unlabeled; blunt

B1: ACTTR promoter WT probe (dsDNA)
DNA 1: ACGAACCACATCCTCGCCAAGGACATGAATGACACA
DNA 2: TGTGTCATTCATGTCCTTGGCGAGGATGTGGTTCGT
- binding result [1]: binds

B2: ACTT6 promoter WT probe (dsDNA)
DNA 1: CGTGACTGACATCCCGCCAAGGCTAACCATCCGGGA
DNA 2: TCCCGGATGGTTAGCCTTGGCGGGATGTCAGTCACG
- binding result [1]: binds

B3: ACTT6 promoter mutant competitor (dsDNA)
DNA 1: B2 DNA 1 with C17A, C18A, A19C, A20C
DNA 2: B2 DNA 2 with T17G, T18G, G19T, G20T
- binding result [2]: no binding
